# PMC3333854 (Nucleic Acids Research, 2011)
# B1: DksA^A35C labeled with Alexa Fluor 546 maleimide (natural protein, Escherichia coli, UniProt P0ABS1 1-151, looked up)
# chain: MQEGQNRKTSSLSILAIAGVEPYQEKPGEEYMNECQLAHFRRILEAWRNQLRDEVDRTVTHMQDEAANFPDPVDRAAQEEEFSLELRNRDRERKLIKKIEKTLKKVEDEDFGYCESCGVEIGIRRLEARPTADLCIDCKTLAEIREKQMAG
# modifications: labeled with Alexa Fluor 546 maleimide (labeling efficiency 60-100%)
# Molecular target: wild-type E. coli core RNA polymerase (E. coli, UniProt P0A8T7 1-1407; P0A8V2 1-1342; P0A7Z4 1-329; P0A800 1-91)
# Test: fluorescence polarisation
# wild-type E. coli core RNA polymerase, sequence (P0A8T7 whole entry, chain 1 of 4): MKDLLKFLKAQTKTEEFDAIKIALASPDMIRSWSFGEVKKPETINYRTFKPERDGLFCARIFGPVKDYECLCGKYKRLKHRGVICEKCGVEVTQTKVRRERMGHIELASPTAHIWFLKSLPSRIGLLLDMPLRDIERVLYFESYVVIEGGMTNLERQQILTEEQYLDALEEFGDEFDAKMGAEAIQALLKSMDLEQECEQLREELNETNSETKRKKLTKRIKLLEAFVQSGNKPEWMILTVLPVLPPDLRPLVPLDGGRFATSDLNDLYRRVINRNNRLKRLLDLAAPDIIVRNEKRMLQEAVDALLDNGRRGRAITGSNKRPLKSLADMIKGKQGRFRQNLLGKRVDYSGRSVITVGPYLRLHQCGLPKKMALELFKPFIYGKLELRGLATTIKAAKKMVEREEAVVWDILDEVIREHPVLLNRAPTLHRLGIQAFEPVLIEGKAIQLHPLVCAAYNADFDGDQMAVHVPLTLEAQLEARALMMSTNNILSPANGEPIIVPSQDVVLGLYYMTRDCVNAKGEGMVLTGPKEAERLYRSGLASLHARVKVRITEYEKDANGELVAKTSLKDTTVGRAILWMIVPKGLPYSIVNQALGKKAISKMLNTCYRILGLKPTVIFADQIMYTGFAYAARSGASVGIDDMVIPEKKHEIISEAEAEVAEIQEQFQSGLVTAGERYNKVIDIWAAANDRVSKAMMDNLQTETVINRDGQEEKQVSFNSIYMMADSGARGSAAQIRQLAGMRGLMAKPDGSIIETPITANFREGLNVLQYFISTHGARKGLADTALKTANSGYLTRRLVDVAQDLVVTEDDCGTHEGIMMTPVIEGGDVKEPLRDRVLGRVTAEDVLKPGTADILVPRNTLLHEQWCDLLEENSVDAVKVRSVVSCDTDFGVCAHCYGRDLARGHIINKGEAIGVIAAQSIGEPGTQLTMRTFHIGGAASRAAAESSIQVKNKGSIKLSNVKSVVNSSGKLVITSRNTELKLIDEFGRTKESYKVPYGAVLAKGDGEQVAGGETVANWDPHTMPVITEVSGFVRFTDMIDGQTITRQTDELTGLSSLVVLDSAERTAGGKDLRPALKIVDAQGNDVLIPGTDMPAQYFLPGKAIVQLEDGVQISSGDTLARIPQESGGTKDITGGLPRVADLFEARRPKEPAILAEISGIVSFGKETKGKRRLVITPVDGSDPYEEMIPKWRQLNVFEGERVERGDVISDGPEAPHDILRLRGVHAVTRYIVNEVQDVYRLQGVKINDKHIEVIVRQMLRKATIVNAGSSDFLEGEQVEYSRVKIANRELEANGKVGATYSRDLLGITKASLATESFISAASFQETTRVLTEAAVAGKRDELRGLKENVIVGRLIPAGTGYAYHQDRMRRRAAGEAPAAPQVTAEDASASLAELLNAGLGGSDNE
# wild-type E. coli core RNA polymerase, sequence (P0A8V2 whole entry, chain 2 of 4): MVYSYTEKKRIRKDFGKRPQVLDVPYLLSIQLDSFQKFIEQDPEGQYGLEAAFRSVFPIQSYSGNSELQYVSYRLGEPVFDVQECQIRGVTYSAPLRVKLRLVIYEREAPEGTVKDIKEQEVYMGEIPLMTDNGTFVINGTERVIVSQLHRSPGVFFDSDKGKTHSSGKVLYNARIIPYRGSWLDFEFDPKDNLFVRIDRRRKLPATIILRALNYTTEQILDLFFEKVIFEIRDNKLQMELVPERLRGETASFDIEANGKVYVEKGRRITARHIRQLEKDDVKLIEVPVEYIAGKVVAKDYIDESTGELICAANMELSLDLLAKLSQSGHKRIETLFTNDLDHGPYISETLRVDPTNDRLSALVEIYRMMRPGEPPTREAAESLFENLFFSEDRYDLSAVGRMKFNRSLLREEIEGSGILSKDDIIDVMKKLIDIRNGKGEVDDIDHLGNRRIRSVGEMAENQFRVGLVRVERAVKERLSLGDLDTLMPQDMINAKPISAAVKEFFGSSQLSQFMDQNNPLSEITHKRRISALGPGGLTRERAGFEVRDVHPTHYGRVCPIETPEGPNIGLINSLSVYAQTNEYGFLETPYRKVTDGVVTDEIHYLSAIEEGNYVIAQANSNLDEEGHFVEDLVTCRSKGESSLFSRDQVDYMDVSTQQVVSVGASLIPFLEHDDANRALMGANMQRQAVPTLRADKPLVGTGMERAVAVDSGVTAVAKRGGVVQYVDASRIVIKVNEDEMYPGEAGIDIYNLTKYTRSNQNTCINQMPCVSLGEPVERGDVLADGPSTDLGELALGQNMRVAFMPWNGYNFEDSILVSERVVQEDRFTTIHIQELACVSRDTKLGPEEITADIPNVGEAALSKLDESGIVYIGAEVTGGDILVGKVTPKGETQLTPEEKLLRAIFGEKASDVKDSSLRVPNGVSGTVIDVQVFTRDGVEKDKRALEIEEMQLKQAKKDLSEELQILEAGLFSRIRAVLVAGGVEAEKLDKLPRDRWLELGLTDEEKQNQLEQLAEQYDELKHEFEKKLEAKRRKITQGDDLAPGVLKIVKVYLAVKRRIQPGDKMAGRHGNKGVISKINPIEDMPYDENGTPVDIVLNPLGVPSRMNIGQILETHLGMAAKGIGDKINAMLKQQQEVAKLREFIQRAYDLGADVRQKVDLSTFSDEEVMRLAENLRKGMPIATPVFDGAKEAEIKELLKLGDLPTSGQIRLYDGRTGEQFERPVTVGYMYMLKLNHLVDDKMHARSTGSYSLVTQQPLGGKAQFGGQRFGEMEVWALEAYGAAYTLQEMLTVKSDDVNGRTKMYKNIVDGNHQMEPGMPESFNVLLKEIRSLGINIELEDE
# wild-type E. coli core RNA polymerase, sequence (P0A7Z4 whole entry, chain 3 of 4): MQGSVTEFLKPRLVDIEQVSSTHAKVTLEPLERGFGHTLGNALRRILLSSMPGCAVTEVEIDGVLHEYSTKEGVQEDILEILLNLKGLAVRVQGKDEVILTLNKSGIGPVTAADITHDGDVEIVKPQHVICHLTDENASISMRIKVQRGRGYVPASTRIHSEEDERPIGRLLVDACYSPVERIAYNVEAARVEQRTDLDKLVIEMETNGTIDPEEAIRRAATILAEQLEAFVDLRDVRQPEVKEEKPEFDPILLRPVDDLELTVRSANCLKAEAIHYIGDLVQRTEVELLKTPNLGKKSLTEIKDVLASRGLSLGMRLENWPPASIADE
# wild-type E. coli core RNA polymerase, sequence (P0A800 whole entry, chain 4 of 4): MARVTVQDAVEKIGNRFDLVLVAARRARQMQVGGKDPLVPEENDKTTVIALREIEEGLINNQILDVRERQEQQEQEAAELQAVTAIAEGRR
binder,measurement,value
B1,Kd,102 ± 13 nM
